Experimental data from article PMC11969024 (2025).

B1: peptide HD2 (from tick evasin EVA4) / CCL17 (biotinylated, synthetic) (parent complex)
chain 1: EEDDYTAYAPLTCYFT
chain 2: ARGTNVGRECCLEYFKGAIPLRKLKTWYQTSEDCSRDAIVFVTVQGRAICSDPNNKRVKNAVKYLQSLERS
B2: peptide HD2 (from tick evasin EVA4) / CCL19 (biotinylated, synthetic) (parent complex)
chain 1: EEDDYTAYAPLTCYFT
chain 2: GTNDAEDCCLSVTQKPIPGYIVRNFHYLLIKDGCRVPAVVFTTLRGRQLCAPPDQPWVERIIQRLQRTSAKMKRRSS

Variants of: B1

Variant	enrichment
chain 1 EEDDYTAYRPLTCYFT [chain 1 A9R]	-4.45 log2 (difference from the parental peptide)
chain 1 EEDDYTAYAPPTCYFT [chain 1 L11P]	-5.62 log2 (difference from the parental peptide)
chain 1 EPDDYTAYAPLTCYFT [chain 1 E2P]	-2.4 log2 (difference from the parental peptide)
chain 1 TEDDYTAYAPLTCYFT [chain 1 E1T]	-0.325 log2 (difference from the parental peptide)
chain 1 EEDDYTAYAPLECYFT [chain 1 T12E]	-5.73 log2 (difference from the parental peptide)
chain 1 EEDDYTAYAPLTCYIT [chain 1 F15I]	0.435 log2 (difference from the parental peptide)
chain 1 EEDDYTAYAPLTCYCT [chain 1 F15C]	-5.94 log2 (difference from the parental peptide)
chain 1 EEDDYTAYAPLTCMFT [chain 1 Y14M]	-4.32 log2 (difference from the parental peptide)
chain 1 EEDDYTQYAPLTCYFT [chain 1 A7Q]	1.91 log2 (difference from the parental peptide)
chain 1 EEDHYTAYAPLTCYFT [chain 1 D4H]	-6.29 log2 (difference from the parental peptide)
chain 1 EEDDVTAYAPLTCYFT [chain 1 Y5V]	-6.56 log2 (difference from the parental peptide)
chain 1 EEDDYTAYAPLTEYFT [chain 1 C13E]	-7.45 log2 (difference from the parental peptide)
chain 1 EEDDYTPYAPLTCYFT [chain 1 A7P]	1.3 log2 (difference from the parental peptide)
chain 1 PEDDYTAYAPLTCYFT [chain 1 E1P]	-1.24 log2 (difference from the parental peptide)
chain 1 EEDAYTAYAPLTCYFT [chain 1 D4A]	-3.66 log2 (difference from the parental peptide)
chain 1 FEDDYTAYAPLTCYFT [chain 1 E1F]	-1.75 log2 (difference from the parental peptide)
chain 1 EEDDYNAYAPLTCYFT [chain 1 T6N]	0.737 log2 (difference from the parental peptide)
chain 1 EEDDYTAYAPCTCYFT [chain 1 L11C]	0.521 log2 (difference from the parental peptide)
chain 1 EEDDYQAYAPLTCYFT [chain 1 T6Q]	0.398 log2 (difference from the parental peptide)
chain 1 EEDDYTIYAPLTCYFT [chain 1 A7I]	-4.17 log2 (difference from the parental peptide)
chain 1 EEDDYTAYAPLTCFFT [chain 1 Y14F]	-0.272 log2 (difference from the parental peptide)
chain 1 EADDYTAYAPLTCYFT [chain 1 E2A]	-0.532 log2 (difference from the parental peptide)
chain 1 EEDDYDAYAPLTCYFT [chain 1 T6D]	1.63 log2 (difference from the parental peptide)
chain 1 EEDDCTAYAPLTCYFT [chain 1 Y5C]	-5.02 log2 (difference from the parental peptide)
chain 1 EEDDYTAYAPLTCYDT [chain 1 F15D]	-0.947 log2 (difference from the parental peptide)
chain 1 EEKDYTAYAPLTCYFT [chain 1 D3K]	-3.46 log2 (difference from the parental peptide)

Variant	enrichment
chain 1 EEDDYTAYAPLTCYWT [chain 1 F15W]	-1.65 log2 (difference from the parental peptide)
chain 1 EEGDYTAYAPLTCYFT [chain 1 D3G]	-4.23 log2 (difference from the parental peptide)
chain 1 HEDDYTAYAPLTCYFT [chain 1 E1H]	-0.323 log2 (difference from the parental peptide)
chain 1 EEDDYTRYAPLTCYFT [chain 1 A7R]	3.96 log2 (difference from the parental peptide)
chain 1 EEDDYTAYAPLTCYET [chain 1 F15E]	-1.17 log2 (difference from the parental peptide)
chain 1 EEDDYTAYFPLTCYFT [chain 1 A9F]	-8.26 log2 (difference from the parental peptide)
chain 1 EEDDYEAYAPLTCYFT [chain 1 T6E]	1.53 log2 (difference from the parental peptide)
chain 1 EEDDYTAYAPLLCYFT [chain 1 T12L]	0.297 log2 (difference from the parental peptide)
chain 1 EEDGYTAYAPLTCYFT [chain 1 D4G]	-4.74 log2 (difference from the parental peptide)
chain 1 EEDDYTAYAPLFCYFT [chain 1 T12F]	0.112 log2 (difference from the parental peptide)
chain 1 EEDDYWAYAPLTCYFT [chain 1 T6W]	0.392 log2 (difference from the parental peptide)
chain 1 EEDDYTAYAPLTRYFT [chain 1 C13R]	-10.7 log2 (difference from the parental peptide)
chain 1 EEDDYTAYAPLTCWFT [chain 1 Y14W]	-0.976 log2 (difference from the parental peptide)
chain 1 EEDDYTAYAPLTCQFT [chain 1 Y14Q]	-4.69 log2 (difference from the parental peptide)
chain 1 EEDDYFAYAPLTCYFT [chain 1 T6F]	-2.91 log2 (difference from the parental peptide)
chain 1 ELDDYTAYAPLTCYFT [chain 1 E2L]	-1.6 log2 (difference from the parental peptide)
chain 1 EEDDYTAYAPLTCYFK [chain 1 T16K]	0.193 log2 (difference from the parental peptide)
chain 1 EEDDYTAYAPLTYYFT [chain 1 C13Y]	-5.68 log2 (difference from the parental peptide)
chain 1 EEDDYTAYAPLTCYFH [chain 1 T16H]	0.123 log2 (difference from the parental peptide)
chain 1 EEPDYTAYAPLTCYFT [chain 1 D3P]	-2.92 log2 (difference from the parental peptide)
chain 1 REDDYTAYAPLTCYFT [chain 1 E1R]	-1.72 log2 (difference from the parental peptide)
chain 1 EEDDYTAYAPLTPYFT [chain 1 C13P]	-6.7 log2 (difference from the parental peptide)
chain 1 EEDDYTLYAPLTCYFT [chain 1 A7L]	-0.26 log2 (difference from the parental peptide)
chain 1 EEDDYTAYAPLTCYFL [chain 1 T16L]	0.451 log2 (difference from the parental peptide)
chain 1 SEDDYTAYAPLTCYFT [chain 1 E1S]	0.17 log2 (difference from the parental peptide)
chain 1 EEDDYTAYAPLTCVFT [chain 1 Y14V]	-3.57 log2 (difference from the parental peptide)

Variant	enrichment
chain 1 EEDDLTAYAPLTCYFT [chain 1 Y5L]	-3.76 log2 (difference from the parental peptide)
chain 1 EEDDYTKYAPLTCYFT [chain 1 A7K]	3.56 log2 (difference from the parental peptide)
chain 1 EEDDDTAYAPLTCYFT [chain 1 Y5D]	-5.57 log2 (difference from the parental peptide)
chain 1 EENDYTAYAPLTCYFT [chain 1 D3N]	-1.74 log2 (difference from the parental peptide)
chain 1 EEDDYTAYAPMTCYFT [chain 1 L11M]	3.11 log2 (difference from the parental peptide)
chain 1 ERDDYTAYAPLTCYFT [chain 1 E2R]	-1.35 log2 (difference from the parental peptide)
chain 1 EVDDYTAYAPLTCYFT [chain 1 E2V]	-1.03 log2 (difference from the parental peptide)
chain 1 EEDDYTAYAYLTCYFT [chain 1 P10Y]	-6.08 log2 (difference from the parental peptide)
chain 1 EEDDYTAYAPLTCYST [chain 1 F15S]	-0.792 log2 (difference from the parental peptide)
chain 1 EEDDYTAYAPLTCGFT [chain 1 Y14G]	-6.43 log2 (difference from the parental peptide)
chain 1 EQDDYTAYAPLTCYFT [chain 1 E2Q]	-0.416 log2 (difference from the parental peptide)
chain 1 EEIDYTAYAPLTCYFT [chain 1 D3I]	-4.4 log2 (difference from the parental peptide)
chain 1 EEDDYTAYAPLTCKFT [chain 1 Y14K]	-7.27 log2 (difference from the parental peptide)
chain 1 EEDLYTAYAPLTCYFT [chain 1 D4L]	-4.56 log2 (difference from the parental peptide)
chain 1 EEDDYIAYAPLTCYFT [chain 1 T6I]	-6.22 log2 (difference from the parental peptide)
chain 1 EEDDYTAYAPLTCIFT [chain 1 Y14I]	-2.85 log2 (difference from the parental peptide)
chain 1 EEDDYTAYHPLTCYFT [chain 1 A9H]	-5.14 log2 (difference from the parental peptide)
chain 1 EEDDYTAYAPLTCSFT [chain 1 Y14S]	-5.6 log2 (difference from the parental peptide)
chain 1 EEDDYTAYMPLTCYFT [chain 1 A9M]	-5.43 log2 (difference from the parental peptide)
chain 1 EEVDYTAYAPLTCYFT [chain 1 D3V]	-5.2 log2 (difference from the parental peptide)
chain 1 EEDDYTAYAPGTCYFT [chain 1 L11G]	-8.35 log2 (difference from the parental peptide)
chain 1 EEDDYTAYAPLRCYFT [chain 1 T12R]	-1.85 log2 (difference from the parental peptide)
chain 1 EEDDYTAYAPLTLYFT [chain 1 C13L]	-6.33 log2 (difference from the parental peptide)
chain 1 EEDDYTAYAPLACYFT [chain 1 T12A]	-4.61 log2 (difference from the parental peptide)
chain 1 EEDDYTAYAPLTCHFT [chain 1 Y14H]	-3.18 log2 (difference from the parental peptide)

Variants of: B2

Variant	enrichment
chain 1 EEDDYTAYAPLTCKFT [chain 1 Y14K]	-5.55 log2 (difference from the parental peptide)
chain 1 EEDDYTAYAPLTCLFT [chain 1 Y14L]	-9.46 log2 (difference from the parental peptide)
chain 1 EEDDYTAYSPLTCYFT [chain 1 A9S]	-6.72 log2 (difference from the parental peptide)
chain 1 EEDDYTAYAPLTCYFG [chain 1 T16G]	-4.08 log2 (difference from the parental peptide)
chain 1 DEDDYTAYAPLTCYFT [chain 1 E1D]	0.567 log2 (difference from the parental peptide)
chain 1 EEDDYTAFAPLTCYFT [chain 1 Y8F]	-1.35 log2 (difference from the parental peptide)
chain 1 EEDDYTAYAPLTCYKT [chain 1 F15K]	-4.98 log2 (difference from the parental peptide)
chain 1 REDDYTAYAPLTCYFT [chain 1 E1R]	-6.95 log2 (difference from the parental peptide)
chain 1 EEDDYTAYAPLTCYRT [chain 1 F15R]	-6.02 log2 (difference from the parental peptide)
chain 1 EEDDYTAYAPRTCYFT [chain 1 L11R]	-3.8 log2 (difference from the parental peptide)
chain 1 EEDDYTAYNPLTCYFT [chain 1 A9N]	-3.82 log2 (difference from the parental peptide)
chain 1 EEDDYMAYAPLTCYFT [chain 1 T6M]	1.73 log2 (difference from the parental peptide)
chain 1 EEDDYTAYAPLTCYFM [chain 1 T16M]	0.0438 log2 (difference from the parental peptide)
chain 1 EVDDYTAYAPLTCYFT [chain 1 E2V]	0.565 log2 (difference from the parental peptide)
chain 1 EEDDYTAYAPLTCYFA [chain 1 T16A]	-1.59 log2 (difference from the parental peptide)
chain 1 EEDDYTAYAPITCYFT [chain 1 L11I]	1.76 log2 (difference from the parental peptide)
chain 1 EEDDYTGYAPLTCYFT [chain 1 A7G]	-5.86 log2 (difference from the parental peptide)
chain 1 KEDDYTAYAPLTCYFT [chain 1 E1K]	-4.04 log2 (difference from the parental peptide)

Variant	enrichment
chain 1 EEDDYTAWAPLTCYFT [chain 1 Y8W]	0.479 log2 (difference from the parental peptide)
chain 1 EEDLYTAYAPLTCYFT [chain 1 D4L]	-2.61 log2 (difference from the parental peptide)
chain 1 EEDDYRAYAPLTCYFT [chain 1 T6R]	-3.39 log2 (difference from the parental peptide)
chain 1 EEDDYTAYAPLTCRFT [chain 1 Y14R]	-7.07 log2 (difference from the parental peptide)
chain 1 EEDDYTAYAGLTCYFT [chain 1 P10G]	-5.73 log2 (difference from the parental peptide)
chain 1 EEDDYTDYAPLTCYFT [chain 1 A7D]	2 log2 (difference from the parental peptide)
chain 1 EEDDYTAYAPLHCYFT [chain 1 T12H]	0.389 log2 (difference from the parental peptide)
chain 1 EEGDYTAYAPLTCYFT [chain 1 D3G]	-6.43 log2 (difference from the parental peptide)
chain 1 EEDDYTAYAPWTCYFT [chain 1 L11W]	-0.0314 log2 (difference from the parental peptide)
chain 1 MEDDYTAYAPLTCYFT [chain 1 E1M]	-5.78 log2 (difference from the parental peptide)
chain 1 YEDDYTAYAPLTCYFT [chain 1 E1Y]	1.7 log2 (difference from the parental peptide)
chain 1 EEDDYTAYIPLTCYFT [chain 1 A9I]	-3.88 log2 (difference from the parental peptide)
chain 1 EEDDYSAYAPLTCYFT [chain 1 T6S]	0.379 log2 (difference from the parental peptide)
chain 1 ETDDYTAYAPLTCYFT [chain 1 E2T]	-1.16 log2 (difference from the parental peptide)
chain 1 EEDDYCAYAPLTCYFT [chain 1 T6C]	-7.51 log2 (difference from the parental peptide)
chain 1 EEDDYTAYRPLTCYFT [chain 1 A9R]	-5.91 log2 (difference from the parental peptide)
chain 1 LEDDYTAYAPLTCYFT [chain 1 E1L]	-2.92 log2 (difference from the parental peptide)
